The experiment has as its target T1, human GIP receptor (human, UniProt P48546 22-466).
T1 sequence (looked up): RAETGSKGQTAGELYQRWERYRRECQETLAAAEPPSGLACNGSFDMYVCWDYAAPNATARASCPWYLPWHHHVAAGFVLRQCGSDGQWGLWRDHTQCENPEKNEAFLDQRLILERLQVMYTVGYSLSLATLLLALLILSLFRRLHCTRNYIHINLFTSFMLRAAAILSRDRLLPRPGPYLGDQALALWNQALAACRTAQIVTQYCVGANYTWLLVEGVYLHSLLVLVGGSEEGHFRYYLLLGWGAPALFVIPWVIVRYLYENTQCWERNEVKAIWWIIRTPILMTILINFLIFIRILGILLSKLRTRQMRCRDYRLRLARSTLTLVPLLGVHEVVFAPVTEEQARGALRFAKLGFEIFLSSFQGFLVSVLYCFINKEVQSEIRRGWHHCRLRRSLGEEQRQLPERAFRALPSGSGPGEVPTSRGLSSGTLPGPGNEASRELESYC
As to the kind of experiment: cell-based or functional assay.

The values below come from patent US20220298218A1 (ANTAG THERAPEUTICS, published 2022).

*1 amine or outer side, *2 acyl side, *3 side chain or, on linkers, in order; H or OH if unused. Where no end group is shown, it is not given here. Side-chain parts run from the residue outwards. The star is where a group is joined. C18 diacid = O=C(O)CCCCCCCCCCCCCCCCC(=O)*; C16 diacid = O=C(O)CCCCCCCCCCCCCCC(=O)*; γGlu = O=C(O)[C@H](CCC(=O)[*:2])N[*:1]; AEEA = NCCOCCOCC(=O)O

B1: AT446 (peptide)
peptide: TFISDYK([AEEA-AEEA-AEEA-γGlu-C18 diacid])IAMDRIHQQDFVNWLLAQRGPSSGAPPPS-OH
modifications: N-terminus assumed
SMILES: CC[C@H](C)[C@H](NC(=O)[C@H](CCCCNC(=O)COCCOCCNC(=O)COCCOCCNC(=O)COCCOCCNC(=O)CC[C@H](NC(=O)CCCCCCCCCCCCCCCCC(=O)O)C(=O)O)NC(=O)[C@H](Cc1ccc(O)cc1)NC(=O)[C@H](CC(=O)O)NC(=O)[C@H](CO)NC(=O)[C@@H](NC(=O)[C@H](Cc1ccccc1)NC(=O)[C@@H](N)[C@@H](C)O)[C@@H](C)CC)C(=O)N[C@@H](C)C(=O)N[C@@H](CCSC)C(=O)N[C@@H](CC(=O)O)C(=O)N[C@@H](CCCNC(=N)N)C(=O)N[C@H](C(=O)N[C@@H](Cc1c[nH]cn1)C(=O)N[C@@H](CCC(N)=O)C(=O)N[C@@H](CCC(N)=O)C(=O)N[C@@H](CC(=O)O)C(=O)N[C@@H](Cc1ccccc1)C(=O)N[C@H](C(=O)N[C@@H](CC(N)=O)C(=O)N[C@@H](Cc1c[nH]c2ccccc12)C(=O)N[C@@H](CC(C)C)C(=O)N[C@@H](CC(C)C)C(=O)N[C@@H](C)C(=O)N[C@@H](CCC(N)=O)C(=O)N[C@@H](CCCNC(=N)N)C(=O)NCC(=O)N1CCC[C@H]1C(=O)N[C@@H](CO)C(=O)N[C@@H](CO)C(=O)NCC(=O)N[C@@H](C)C(=O)N1CCC[C@H]1C(=O)N1CCC[C@H]1C(=O)N1CCC[C@H]1C(=O)N[C@@H](CO)C(=O)O)C(C)C)[C@@H](C)CC
Turning to B1, the “cAMP antagonism” value is 152 nM, the “cAMP antagonism % inhib” value was 100% and the cAMP antagonism log was -6.8 log M.

B2: AT445 (peptide)
peptide: TFISDYK([AEEA-AEEA-γGlu-C18 diacid])IAMDRIHQQDFVNWLLAQRGPSSGAPPPS-OH
modifications: N-terminus assumed
SMILES: CC[C@H](C)[C@H](NC(=O)[C@H](CCCCNC(=O)COCCOCCNC(=O)COCCOCCNC(=O)CC[C@H](NC(=O)CCCCCCCCCCCCCCCCC(=O)O)C(=O)O)NC(=O)[C@H](Cc1ccc(O)cc1)NC(=O)[C@H](CC(=O)O)NC(=O)[C@H](CO)NC(=O)[C@@H](NC(=O)[C@H](Cc1ccccc1)NC(=O)[C@@H](N)[C@@H](C)O)[C@@H](C)CC)C(=O)N[C@@H](C)C(=O)N[C@@H](CCSC)C(=O)N[C@@H](CC(=O)O)C(=O)N[C@@H](CCCNC(=N)N)C(=O)N[C@H](C(=O)N[C@@H](Cc1c[nH]cn1)C(=O)N[C@@H](CCC(N)=O)C(=O)N[C@@H](CCC(N)=O)C(=O)N[C@@H](CC(=O)O)C(=O)N[C@@H](Cc1ccccc1)C(=O)N[C@H](C(=O)N[C@@H](CC(N)=O)C(=O)N[C@@H](Cc1c[nH]c2ccccc12)C(=O)N[C@@H](CC(C)C)C(=O)N[C@@H](CC(C)C)C(=O)N[C@@H](C)C(=O)N[C@@H](CCC(N)=O)C(=O)N[C@@H](CCCNC(=N)N)C(=O)NCC(=O)N1CCC[C@H]1C(=O)N[C@@H](CO)C(=O)N[C@@H](CO)C(=O)NCC(=O)N[C@@H](C)C(=O)N1CCC[C@H]1C(=O)N1CCC[C@H]1C(=O)N1CCC[C@H]1C(=O)N[C@@H](CO)C(=O)O)C(C)C)[C@@H](C)CC
As to B2, the “cAMP antagonism” value worked out at 47 nM, the “cAMP antagonism % inhib” value was determined as 85% and the cAMP antagonism log was -7.3 log M.

B3: AT444 (peptide)
peptide: TFISDYK([AEEA-AEEA-AEEA-γGlu-C16 diacid])IAMDRIHQQDFVNWLLAQRGPSSGAPPPS-OH
modifications: N-terminus assumed
SMILES: CC[C@H](C)[C@H](NC(=O)[C@H](CCCCNC(=O)COCCOCCNC(=O)COCCOCCNC(=O)COCCOCCNC(=O)CC[C@H](NC(=O)CCCCCCCCCCCCCCC(=O)O)C(=O)O)NC(=O)[C@H](Cc1ccc(O)cc1)NC(=O)[C@H](CC(=O)O)NC(=O)[C@H](CO)NC(=O)[C@@H](NC(=O)[C@H](Cc1ccccc1)NC(=O)[C@@H](N)[C@@H](C)O)[C@@H](C)CC)C(=O)N[C@@H](C)C(=O)N[C@@H](CCSC)C(=O)N[C@@H](CC(=O)O)C(=O)N[C@@H](CCCNC(=N)N)C(=O)N[C@H](C(=O)N[C@@H](Cc1c[nH]cn1)C(=O)N[C@@H](CCC(N)=O)C(=O)N[C@@H](CCC(N)=O)C(=O)N[C@@H](CC(=O)O)C(=O)N[C@@H](Cc1ccccc1)C(=O)N[C@H](C(=O)N[C@@H](CC(N)=O)C(=O)N[C@@H](Cc1c[nH]c2ccccc12)C(=O)N[C@@H](CC(C)C)C(=O)N[C@@H](CC(C)C)C(=O)N[C@@H](C)C(=O)N[C@@H](CCC(N)=O)C(=O)N[C@@H](CCCNC(=N)N)C(=O)NCC(=O)N1CCC[C@H]1C(=O)N[C@@H](CO)C(=O)N[C@@H](CO)C(=O)NCC(=O)N[C@@H](C)C(=O)N1CCC[C@H]1C(=O)N1CCC[C@H]1C(=O)N1CCC[C@H]1C(=O)N[C@@H](CO)C(=O)O)C(C)C)[C@@H](C)CC
As to B3, the “cAMP antagonism” value is 153 nM, the “cAMP antagonism % inhib” value is 100% and the cAMP antagonism log is -6.8 log M.

B4: AT443 (peptide)
peptide: TFISDYK([AEEA-AEEA-γGlu-C16 diacid])IAMDRIHQQDFVNWLLAQRGPSSGAPPPS-OH
modifications: N-terminus assumed
SMILES: CC[C@H](C)[C@H](NC(=O)[C@H](CCCCNC(=O)COCCOCCNC(=O)COCCOCCNC(=O)CC[C@H](NC(=O)CCCCCCCCCCCCCCC(=O)O)C(=O)O)NC(=O)[C@H](Cc1ccc(O)cc1)NC(=O)[C@H](CC(=O)O)NC(=O)[C@H](CO)NC(=O)[C@@H](NC(=O)[C@H](Cc1ccccc1)NC(=O)[C@@H](N)[C@@H](C)O)[C@@H](C)CC)C(=O)N[C@@H](C)C(=O)N[C@@H](CCSC)C(=O)N[C@@H](CC(=O)O)C(=O)N[C@@H](CCCNC(=N)N)C(=O)N[C@H](C(=O)N[C@@H](Cc1c[nH]cn1)C(=O)N[C@@H](CCC(N)=O)C(=O)N[C@@H](CCC(N)=O)C(=O)N[C@@H](CC(=O)O)C(=O)N[C@@H](Cc1ccccc1)C(=O)N[C@H](C(=O)N[C@@H](CC(N)=O)C(=O)N[C@@H](Cc1c[nH]c2ccccc12)C(=O)N[C@@H](CC(C)C)C(=O)N[C@@H](CC(C)C)C(=O)N[C@@H](C)C(=O)N[C@@H](CCC(N)=O)C(=O)N[C@@H](CCCNC(=N)N)C(=O)NCC(=O)N1CCC[C@H]1C(=O)N[C@@H](CO)C(=O)N[C@@H](CO)C(=O)NCC(=O)N[C@@H](C)C(=O)N1CCC[C@H]1C(=O)N1CCC[C@H]1C(=O)N1CCC[C@H]1C(=O)N[C@@H](CO)C(=O)O)C(C)C)[C@@H](C)CC
As to B4, the “cAMP antagonism” value was found to be 171 nM, the “cAMP antagonism % inhib” value was 100% and the cAMP antagonism log is -6.8 log M.

B5: AT430 (peptide)
peptide: TFISDYK([AEEA-AEEA-AEEA-γGlu-C18 diacid])IAMDRIHQQDFVNWLLAQRGRRNDW-OH
modifications: N-terminus assumed
SMILES: CC[C@H](C)[C@H](NC(=O)[C@H](CCCCNC(=O)COCCOCCNC(=O)COCCOCCNC(=O)COCCOCCNC(=O)CC[C@H](NC(=O)CCCCCCCCCCCCCCCCC(=O)O)C(=O)O)NC(=O)[C@H](Cc1ccc(O)cc1)NC(=O)[C@H](CC(=O)O)NC(=O)[C@H](CO)NC(=O)[C@@H](NC(=O)[C@H](Cc1ccccc1)NC(=O)[C@@H](N)[C@@H](C)O)[C@@H](C)CC)C(=O)N[C@@H](C)C(=O)N[C@@H](CCSC)C(=O)N[C@@H](CC(=O)O)C(=O)N[C@@H](CCCNC(=N)N)C(=O)N[C@H](C(=O)N[C@@H](Cc1c[nH]cn1)C(=O)N[C@@H](CCC(N)=O)C(=O)N[C@@H](CCC(N)=O)C(=O)N[C@@H](CC(=O)O)C(=O)N[C@@H](Cc1ccccc1)C(=O)N[C@H](C(=O)N[C@@H](CC(N)=O)C(=O)N[C@@H](Cc1c[nH]c2ccccc12)C(=O)N[C@@H](CC(C)C)C(=O)N[C@@H](CC(C)C)C(=O)N[C@@H](C)C(=O)N[C@@H](CCC(N)=O)C(=O)N[C@@H](CCCNC(=N)N)C(=O)NCC(=O)N[C@@H](CCCNC(=N)N)C(=O)N[C@@H](CCCNC(=N)N)C(=O)N[C@@H](CC(N)=O)C(=O)N[C@@H](CC(=O)O)C(=O)N[C@@H](Cc1c[nH]c2ccccc12)C(=O)O)C(C)C)[C@@H](C)CC
As for B5, the “cAMP antagonism” value was 153 nM, the “cAMP antagonism % inhib” value was determined as 100% and the cAMP antagonism log is -6.8 log M.

B6: AT428 (peptide)
peptide: TFISDYK([AEEA-AEEA-AEEA-γGlu-C16 diacid])IAMDRIHQQDFVNWLLAQRGRRNDW-OH
modifications: N-terminus assumed
SMILES: CC[C@H](C)[C@H](NC(=O)[C@H](CCCCNC(=O)COCCOCCNC(=O)COCCOCCNC(=O)COCCOCCNC(=O)CC[C@H](NC(=O)CCCCCCCCCCCCCCC(=O)O)C(=O)O)NC(=O)[C@H](Cc1ccc(O)cc1)NC(=O)[C@H](CC(=O)O)NC(=O)[C@H](CO)NC(=O)[C@@H](NC(=O)[C@H](Cc1ccccc1)NC(=O)[C@@H](N)[C@@H](C)O)[C@@H](C)CC)C(=O)N[C@@H](C)C(=O)N[C@@H](CCSC)C(=O)N[C@@H](CC(=O)O)C(=O)N[C@@H](CCCNC(=N)N)C(=O)N[C@H](C(=O)N[C@@H](Cc1c[nH]cn1)C(=O)N[C@@H](CCC(N)=O)C(=O)N[C@@H](CCC(N)=O)C(=O)N[C@@H](CC(=O)O)C(=O)N[C@@H](Cc1ccccc1)C(=O)N[C@H](C(=O)N[C@@H](CC(N)=O)C(=O)N[C@@H](Cc1c[nH]c2ccccc12)C(=O)N[C@@H](CC(C)C)C(=O)N[C@@H](CC(C)C)C(=O)N[C@@H](C)C(=O)N[C@@H](CCC(N)=O)C(=O)N[C@@H](CCCNC(=N)N)C(=O)NCC(=O)N[C@@H](CCCNC(=N)N)C(=O)N[C@@H](CCCNC(=N)N)C(=O)N[C@@H](CC(N)=O)C(=O)N[C@@H](CC(=O)O)C(=O)N[C@@H](Cc1c[nH]c2ccccc12)C(=O)O)C(C)C)[C@@H](C)CC
For the molecule B6, the “cAMP antagonism” value worked out at 296 nM, the “cAMP antagonism % inhib” value stood at 90% and the cAMP antagonism log was -6.5 log M.
